# Biological target: glyceraldehyde-3-phosphate dehydrogenase (GAPDH) (human) (UniProt P04406)
# Assay: mass photometry; recombinant GAPDH without RNA; 100 nM GAPDH in binding buffer (10 mM Tris-HCl pH 8.0, 50 mM KCl, 2 mM DTT, 0.5 mM EDTA), 25 min at room temperature, diluted 1:10 for measurement; TwoMP mass photometer; monomer and tetramer peaks seen
# glyceraldehyde-3-phosphate dehydrogenase (GAPDH), P04406 1-335 (enzyme; other documents disagree on this pair), sequence (P04406 whole entry): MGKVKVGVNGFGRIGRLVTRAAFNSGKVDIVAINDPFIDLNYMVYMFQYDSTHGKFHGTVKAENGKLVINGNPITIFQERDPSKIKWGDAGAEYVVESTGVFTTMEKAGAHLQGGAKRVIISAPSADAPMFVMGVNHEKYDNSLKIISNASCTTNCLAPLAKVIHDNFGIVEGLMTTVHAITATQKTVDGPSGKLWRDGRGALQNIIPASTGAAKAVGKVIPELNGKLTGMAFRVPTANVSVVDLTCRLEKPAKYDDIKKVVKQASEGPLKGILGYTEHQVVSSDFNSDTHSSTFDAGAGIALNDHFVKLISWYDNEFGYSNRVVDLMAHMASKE
substance,measurement,value
"glyceraldehyde-3-phosphate dehydrogenase (GAPDH), P04406 1-335 (enzyme; other documents disagree on this pair)",stoichiometry N,4
